# What was measured:
# MAPKAP-K2 (h) = MAPKAP-K2 (h) (Homo sapiens, UniProt P49137); test: Millipore radiometric kinase assay (IC50 Profiler Express / kinase profiling); assay type: biochemical; conditions: MAPKAP-K2(h); 100 μM
# Description: (§1) Specifically, in these assays, a positively charged substrate is phosphorylated with a radiolabeled phosphate group from an ATP if the kinase is not inhibited by an inhibitor peptide. The positively charged substrate then is attracted to a negatively charged filter membrane, quantified with a scintillation counter, and compared to a 100% activity control.
# MAPKAP-K3 (h) = MAPKAP-K3 (h) (Homo sapiens, UniProt Q16644); test: as above; assay type: biochemical; conditions: MAPKAP-K3(h); 100 μM
# Chain of MAPKAP-K3 (h) (Q16644 whole entry): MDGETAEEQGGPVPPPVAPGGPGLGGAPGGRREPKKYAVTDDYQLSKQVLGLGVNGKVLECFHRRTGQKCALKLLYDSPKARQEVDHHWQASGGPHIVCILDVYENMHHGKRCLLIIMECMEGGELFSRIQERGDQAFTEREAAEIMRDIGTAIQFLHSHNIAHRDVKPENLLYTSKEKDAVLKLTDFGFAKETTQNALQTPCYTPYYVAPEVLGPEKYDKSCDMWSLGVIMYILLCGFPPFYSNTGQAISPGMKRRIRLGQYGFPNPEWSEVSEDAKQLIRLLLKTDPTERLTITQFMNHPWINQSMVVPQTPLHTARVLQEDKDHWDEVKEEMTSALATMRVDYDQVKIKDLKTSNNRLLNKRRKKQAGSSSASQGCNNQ
# Description: as §1
# TrkB (h) = TrkB (h) (Homo sapiens, UniProt Q16620); test: as above; assay type: biochemical; conditions: TrkB(h); 100 μM
# Description: as §1
# 266 human kinases [1] = biological target: 266 human kinases (Homo sapiens, UniProt P06213); test: biochemical; assay type: biochemical; conditions: IR(h), 100 μM
# How it was run: (§2)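 Steps: kinase transfers radiolabelled phosphate from ATP onto a positively charged substrate; the substrate is trapped on a negatively charged filter; bound radioactivity is counted by scintillation and compared with uninhibited (100%) activity.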
# 266 human kinases [2] = biological target: 266 human kinases (Homo sapiens, UniProt P08069); test: biochemical; assay type: biochemical; conditions: IGF-1R(h), 100 μM
# How it was run: as §2
# 266 human kinases [3] = biological target: 266 human kinases (Homo sapiens, UniProt P09619); test: biochemical; assay type: biochemical; conditions: PDGFRβ(h); 100 μM
# Chain of 266 human kinases (Homo sapiens, UniProt P09619) (P09619 33-1106): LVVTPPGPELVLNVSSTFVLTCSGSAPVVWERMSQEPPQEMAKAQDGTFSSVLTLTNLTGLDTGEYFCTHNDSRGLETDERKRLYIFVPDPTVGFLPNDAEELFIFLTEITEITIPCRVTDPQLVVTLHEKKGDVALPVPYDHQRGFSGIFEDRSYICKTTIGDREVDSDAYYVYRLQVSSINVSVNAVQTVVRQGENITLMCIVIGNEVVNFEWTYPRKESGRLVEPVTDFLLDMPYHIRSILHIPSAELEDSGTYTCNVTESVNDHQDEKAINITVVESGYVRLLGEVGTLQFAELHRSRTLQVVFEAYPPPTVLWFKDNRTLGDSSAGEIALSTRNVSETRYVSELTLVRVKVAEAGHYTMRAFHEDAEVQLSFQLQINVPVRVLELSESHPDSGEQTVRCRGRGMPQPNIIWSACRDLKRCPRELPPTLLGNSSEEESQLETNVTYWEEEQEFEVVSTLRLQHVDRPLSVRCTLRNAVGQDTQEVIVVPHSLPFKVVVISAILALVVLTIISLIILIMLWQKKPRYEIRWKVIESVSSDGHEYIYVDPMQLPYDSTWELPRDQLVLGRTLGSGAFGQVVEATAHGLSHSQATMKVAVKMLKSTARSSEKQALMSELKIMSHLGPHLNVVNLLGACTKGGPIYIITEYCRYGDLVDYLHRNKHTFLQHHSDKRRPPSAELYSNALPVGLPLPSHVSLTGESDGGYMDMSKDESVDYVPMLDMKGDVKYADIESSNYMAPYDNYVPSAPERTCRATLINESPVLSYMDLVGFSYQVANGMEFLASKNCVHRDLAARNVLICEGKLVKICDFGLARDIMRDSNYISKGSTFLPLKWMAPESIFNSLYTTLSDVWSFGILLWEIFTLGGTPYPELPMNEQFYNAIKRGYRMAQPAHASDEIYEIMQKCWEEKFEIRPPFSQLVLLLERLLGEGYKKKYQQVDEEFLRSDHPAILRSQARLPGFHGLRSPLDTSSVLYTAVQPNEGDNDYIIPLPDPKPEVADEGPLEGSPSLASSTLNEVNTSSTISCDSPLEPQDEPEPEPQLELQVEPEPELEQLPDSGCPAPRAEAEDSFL
# How it was run: as §2
# 266 human kinases [4] = biological target: 266 human kinases (Homo sapiens, UniProt P11362); test: biochemical; assay type: biochemical; conditions: FGFR1(h); 100 μM
# Chain of 266 human kinases (Homo sapiens, UniProt P11362) (P11362 22-822): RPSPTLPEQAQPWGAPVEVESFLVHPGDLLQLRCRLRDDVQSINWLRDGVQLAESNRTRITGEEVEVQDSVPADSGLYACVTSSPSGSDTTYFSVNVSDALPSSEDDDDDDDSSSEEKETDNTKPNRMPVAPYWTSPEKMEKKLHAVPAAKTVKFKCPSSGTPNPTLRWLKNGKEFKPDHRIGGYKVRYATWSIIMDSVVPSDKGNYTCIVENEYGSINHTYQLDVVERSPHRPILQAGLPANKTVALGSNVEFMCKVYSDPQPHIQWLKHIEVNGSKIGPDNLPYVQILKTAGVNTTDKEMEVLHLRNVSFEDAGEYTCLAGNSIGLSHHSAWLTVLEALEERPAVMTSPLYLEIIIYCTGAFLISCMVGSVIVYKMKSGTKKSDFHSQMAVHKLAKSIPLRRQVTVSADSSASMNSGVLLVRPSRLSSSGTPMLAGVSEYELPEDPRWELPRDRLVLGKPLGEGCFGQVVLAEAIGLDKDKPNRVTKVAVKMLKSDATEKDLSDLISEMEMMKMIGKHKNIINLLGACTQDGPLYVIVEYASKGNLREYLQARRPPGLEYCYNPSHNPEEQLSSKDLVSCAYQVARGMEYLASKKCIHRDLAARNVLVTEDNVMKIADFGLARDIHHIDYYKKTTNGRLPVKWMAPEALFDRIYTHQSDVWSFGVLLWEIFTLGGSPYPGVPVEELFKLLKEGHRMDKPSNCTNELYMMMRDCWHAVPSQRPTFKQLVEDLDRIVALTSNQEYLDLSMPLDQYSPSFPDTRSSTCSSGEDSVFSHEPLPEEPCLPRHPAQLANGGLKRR
# How it was run: as §2
# 266 human kinases [5] = biological target: 266 human kinases (Homo sapiens, UniProt P16234, D842V); test: biochemical; assay type: biochemical; conditions: PDGFRα(D842V)(h); 100 μM
# How it was run: as §2
# 266 human kinases [6] = biological target: T1, 266 human kinases (Homo sapiens, UniProt P29320); test: biochemical; assay type: biochemical; conditions: EphA3(h); 100 μM
# T1 sequence (P29320 21-983): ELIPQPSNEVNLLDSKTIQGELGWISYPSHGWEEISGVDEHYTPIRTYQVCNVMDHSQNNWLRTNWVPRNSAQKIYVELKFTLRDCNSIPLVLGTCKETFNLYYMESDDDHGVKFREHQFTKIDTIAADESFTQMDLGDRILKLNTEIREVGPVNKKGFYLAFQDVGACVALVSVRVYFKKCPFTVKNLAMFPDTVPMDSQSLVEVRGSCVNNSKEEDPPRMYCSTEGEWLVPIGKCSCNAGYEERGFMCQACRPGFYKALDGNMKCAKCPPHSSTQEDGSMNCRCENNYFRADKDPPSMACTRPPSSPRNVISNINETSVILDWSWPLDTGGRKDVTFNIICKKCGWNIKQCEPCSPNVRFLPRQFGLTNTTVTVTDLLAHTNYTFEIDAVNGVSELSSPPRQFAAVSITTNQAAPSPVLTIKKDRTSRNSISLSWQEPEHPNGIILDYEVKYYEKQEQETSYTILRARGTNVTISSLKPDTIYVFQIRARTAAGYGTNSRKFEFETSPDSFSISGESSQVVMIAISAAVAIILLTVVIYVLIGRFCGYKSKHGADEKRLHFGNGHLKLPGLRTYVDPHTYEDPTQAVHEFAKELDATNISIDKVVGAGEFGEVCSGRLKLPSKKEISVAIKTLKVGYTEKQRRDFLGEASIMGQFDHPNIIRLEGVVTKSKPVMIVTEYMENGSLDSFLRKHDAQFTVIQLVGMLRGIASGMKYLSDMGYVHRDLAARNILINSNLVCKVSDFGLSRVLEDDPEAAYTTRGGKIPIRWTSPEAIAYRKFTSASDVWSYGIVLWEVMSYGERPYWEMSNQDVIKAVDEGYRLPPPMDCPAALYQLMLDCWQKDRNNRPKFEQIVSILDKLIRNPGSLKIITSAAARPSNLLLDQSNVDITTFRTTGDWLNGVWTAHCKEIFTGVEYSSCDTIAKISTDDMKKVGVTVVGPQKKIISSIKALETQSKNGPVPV
# How it was run: as §2
# 266 human kinases [7] = biological target: 266 human kinases (Homo sapiens, UniProt P36888, D835Y); test: biochemical; assay type: biochemical; conditions: Flt3(D835Y)(h); 100 μM
# How it was run: as §2
# 266 human kinases [8] = biological target: 266 human kinases (Homo sapiens, UniProt P43250); test: biochemical; assay type: biochemical; conditions: GRK6(h); 100 μM
# Chain of 266 human kinases (Homo sapiens, UniProt P43250) (P43250 whole entry): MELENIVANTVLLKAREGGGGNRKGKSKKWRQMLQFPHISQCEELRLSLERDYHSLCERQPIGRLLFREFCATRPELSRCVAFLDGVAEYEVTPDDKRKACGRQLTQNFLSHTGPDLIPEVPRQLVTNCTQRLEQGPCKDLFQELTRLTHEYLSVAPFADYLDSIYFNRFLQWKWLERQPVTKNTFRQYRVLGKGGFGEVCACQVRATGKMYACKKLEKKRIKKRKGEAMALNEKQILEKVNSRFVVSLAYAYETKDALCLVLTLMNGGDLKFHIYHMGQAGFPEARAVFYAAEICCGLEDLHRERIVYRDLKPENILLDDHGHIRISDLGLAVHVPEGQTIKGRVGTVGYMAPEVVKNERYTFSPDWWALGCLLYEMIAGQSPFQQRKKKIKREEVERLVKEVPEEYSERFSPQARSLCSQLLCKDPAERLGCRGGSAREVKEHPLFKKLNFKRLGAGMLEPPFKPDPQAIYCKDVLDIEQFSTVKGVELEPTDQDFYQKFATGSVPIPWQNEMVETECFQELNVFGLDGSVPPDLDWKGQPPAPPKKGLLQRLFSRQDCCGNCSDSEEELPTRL
# How it was run: as §2
# 266 human kinases [9] = biological target: 266 human kinases (Homo sapiens, UniProt P45984); test: biochemical; assay type: biochemical; conditions: JNK2α2(h); 100 μM
# How it was run: as §2
# 266 human kinases [10] = biological target: 266 human kinases (Homo sapiens, UniProt Q13555); test: biochemical; assay type: biochemical; conditions: CaMKIIγ(h); 100 μM
# Chain of 266 human kinases (Homo sapiens, UniProt Q13555) (Q13555 whole entry): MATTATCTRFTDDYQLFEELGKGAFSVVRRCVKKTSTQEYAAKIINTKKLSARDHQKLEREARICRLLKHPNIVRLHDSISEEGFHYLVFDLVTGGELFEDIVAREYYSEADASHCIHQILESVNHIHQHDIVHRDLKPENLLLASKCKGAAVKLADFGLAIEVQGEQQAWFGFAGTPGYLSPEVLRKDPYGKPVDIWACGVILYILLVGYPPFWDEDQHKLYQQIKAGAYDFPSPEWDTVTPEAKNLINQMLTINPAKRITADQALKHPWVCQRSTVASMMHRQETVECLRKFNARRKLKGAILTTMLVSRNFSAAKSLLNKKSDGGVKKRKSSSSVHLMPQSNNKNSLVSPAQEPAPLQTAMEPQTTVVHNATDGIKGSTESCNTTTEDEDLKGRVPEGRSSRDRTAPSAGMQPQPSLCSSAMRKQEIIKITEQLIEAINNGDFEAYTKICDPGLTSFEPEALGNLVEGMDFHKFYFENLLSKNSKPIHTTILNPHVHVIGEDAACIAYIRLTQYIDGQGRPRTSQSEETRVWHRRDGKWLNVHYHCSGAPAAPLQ
# How it was run: as §2
# 266 human kinases [11] = biological target: 266 human kinases (Homo sapiens, UniProt Q16566); test: biochemical; assay type: biochemical; conditions: CaMKIV(h); 100 μM
# Chain of 266 human kinases (Homo sapiens, UniProt Q16566) (Q16566 whole entry): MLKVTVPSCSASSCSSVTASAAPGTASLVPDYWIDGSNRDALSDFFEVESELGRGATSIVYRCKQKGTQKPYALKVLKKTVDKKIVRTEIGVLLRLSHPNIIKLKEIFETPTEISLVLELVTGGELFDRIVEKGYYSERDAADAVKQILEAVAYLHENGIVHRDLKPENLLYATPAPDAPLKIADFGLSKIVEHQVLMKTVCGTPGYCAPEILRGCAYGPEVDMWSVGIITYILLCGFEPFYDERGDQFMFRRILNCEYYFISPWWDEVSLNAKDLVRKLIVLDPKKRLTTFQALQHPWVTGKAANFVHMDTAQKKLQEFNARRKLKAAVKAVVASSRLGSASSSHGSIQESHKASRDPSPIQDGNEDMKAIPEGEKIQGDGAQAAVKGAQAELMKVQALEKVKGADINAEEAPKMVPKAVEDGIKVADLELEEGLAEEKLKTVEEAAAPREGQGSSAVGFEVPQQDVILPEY
# How it was run: as §2
# 266 human kinases [12] = biological target: T2, 266 human kinases (Homo sapiens, UniProt Q96PF2); test: biochemical; assay type: biochemical; conditions: TSSK2(h); 100 μM
# T2 sequence (Q96PF2 1-358): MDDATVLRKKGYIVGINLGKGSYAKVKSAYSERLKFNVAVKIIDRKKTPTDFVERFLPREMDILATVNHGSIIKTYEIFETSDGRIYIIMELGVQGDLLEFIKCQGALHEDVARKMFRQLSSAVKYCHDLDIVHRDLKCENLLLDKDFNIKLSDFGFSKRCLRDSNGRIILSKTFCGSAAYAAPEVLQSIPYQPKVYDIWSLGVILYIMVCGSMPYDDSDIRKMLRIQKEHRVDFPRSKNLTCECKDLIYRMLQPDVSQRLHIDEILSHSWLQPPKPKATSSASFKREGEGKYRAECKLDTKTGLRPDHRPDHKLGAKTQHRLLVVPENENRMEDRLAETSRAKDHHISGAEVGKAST
# How it was run: as §2
# 266 human kinases [13] = biological target: 266 human kinases (Homo sapiens, UniProt Q96SB4); test: biochemical; assay type: biochemical; conditions: SRPK1(h); 100 μM
# Chain of 266 human kinases (Homo sapiens, UniProt Q96SB4) (Q96SB4 whole entry): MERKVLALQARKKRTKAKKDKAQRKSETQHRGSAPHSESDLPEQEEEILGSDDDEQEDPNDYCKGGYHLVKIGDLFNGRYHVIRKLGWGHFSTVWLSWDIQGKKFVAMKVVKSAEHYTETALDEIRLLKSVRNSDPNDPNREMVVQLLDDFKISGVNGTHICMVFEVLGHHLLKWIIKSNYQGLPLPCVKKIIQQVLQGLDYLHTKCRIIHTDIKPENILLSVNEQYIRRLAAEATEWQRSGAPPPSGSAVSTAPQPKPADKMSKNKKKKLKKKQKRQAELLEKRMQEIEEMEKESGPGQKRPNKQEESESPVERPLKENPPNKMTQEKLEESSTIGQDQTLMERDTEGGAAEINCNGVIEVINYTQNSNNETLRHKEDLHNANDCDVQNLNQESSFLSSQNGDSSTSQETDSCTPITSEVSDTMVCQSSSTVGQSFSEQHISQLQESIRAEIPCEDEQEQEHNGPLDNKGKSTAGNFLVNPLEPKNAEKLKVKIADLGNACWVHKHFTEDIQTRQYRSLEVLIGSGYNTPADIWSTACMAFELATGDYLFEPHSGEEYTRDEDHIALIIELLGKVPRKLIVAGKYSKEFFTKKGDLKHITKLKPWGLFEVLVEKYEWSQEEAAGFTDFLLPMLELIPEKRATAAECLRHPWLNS
# How it was run: as §2
# EphA2 (h) = EphA2 (h) (Homo sapiens, UniProt P29317); test: biochemical; conditions: EphA2(h); 100 μM
# Description: as §1
# Fgr (h) = Fgr (h) (Homo sapiens, UniProt P09769); test: biochemical; conditions: Fgr(h); 100 μM
# Description: as §1
# Yes (h) = Yes (h) (Homo sapiens, UniProt P07947); test: biochemical; conditions: Yes(h); 100 μM
# Description: as §1
# Chain of MAPKAP-K2 (h) (P49137 whole entry): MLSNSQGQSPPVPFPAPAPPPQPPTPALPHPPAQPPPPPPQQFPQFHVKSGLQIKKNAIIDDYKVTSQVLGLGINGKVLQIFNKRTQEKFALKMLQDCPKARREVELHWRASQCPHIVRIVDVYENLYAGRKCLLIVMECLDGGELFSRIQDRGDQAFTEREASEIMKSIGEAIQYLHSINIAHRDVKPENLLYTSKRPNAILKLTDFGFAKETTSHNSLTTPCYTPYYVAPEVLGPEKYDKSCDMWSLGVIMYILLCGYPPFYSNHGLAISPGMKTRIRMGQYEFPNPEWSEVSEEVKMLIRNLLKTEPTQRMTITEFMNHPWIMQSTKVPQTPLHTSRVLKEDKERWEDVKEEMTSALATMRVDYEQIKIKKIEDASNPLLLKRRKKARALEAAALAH
Sequence,% activity (MAPKAP-K2 (h)),% activity (MAPKAP-K3 (h)),% activity (TrkB (h)),% activity (266 human kinases [1]),% activity (266 human kinases [2]; activated),% activity (266 human kinases [3]),% activity (266 human kinases [4]),% activity (266 human kinases [8]),% activity (266 human kinases [10]),% activity (266 human kinases [11]),% activity (266 human kinases [12]),% activity (266 human kinases [13]),other results
HRRIKAWLKKIKALARQLGVAA (mammal) [MMI-0500],9%,9%,12%,95%,45%,40%,18%,174%,3%,-1%,92%,80%,% activity (266 human kinases [1]; activated): 90%; % activity (266 human kinases [5]): 170%; % activity (266 human kinases [6]): 33%; % activity (266 human kinases [7]): 65%; % activity (266 human kinases [9]): 81%
YARAAARQARAKALNRQLGVA (mammal) [MMI-0200],35%,39%,7%,90%,94%,137%,97%,132%,94%,71%,91%,93%,% activity (EphA2 (h)): 95%; % activity (Fgr (h)): 71%; % activity (Yes (h)): 93%; % activity (266 human kinases [2]): 49%
